According to patent publication US20240400698A1, “ANTI-CHEMOKIN LIKE RECEPTOR 1 ANTIBODIES AND THEIR THERAPEUTIC APPLICATIONS” (OSE IMMUNOTHERAPEUTICS, priority 2018, published 2024):

Assays:
[1] = tested on: NOD female mice, spontaneous type 1 diabetes; assay: Type 1 diabetes NOD model; assay type: in vivo; conditions: 20 μg/injection i.p. three times a week for 2 weeks
Description: FIG. 5. […] Mice develop spontaneous diabetes. […] A. Percentage of survival, B. individual representation of blood glucose concentration in mg/dL. C. pooled representation of blood glucose concentration in mg/dL.
8 weeks-old NOD female mice were obtained from Charles River laboratory. These mice develop a spontaneous type 1 diabetes at age between 12 to 20 weeks. The diabetes initiation can be measured by the high glycaemia.

[2] = tested on: mice M1 or M2 macrophages; assay: Cytokine secretion by mice M1 or M2 macrophages (ELISA), FIG. 15; assay type: cell-based; conditions: ELISA
Procedure: FIG. 15. Study of the inflammatory cytokine secretion by human macrophages during CMKLR1 activation. After differentiation of human macrophages M1 or M2, cells were incubated in presence of medium, isotype control, anti-CMKLR1 antibodies (H6 and BZ194), C15 peptides, 2G1 anti-CMKLR1 antibody or RvE1. Secretion of IL10, CCL17 and IL12p40 were assessed by ELISA. Cytokines secretion is measured in the supernatant by using an ELISA kit from BD. Supernatant were diluted at 1/10 for IL10 cytokines, 1/50 for CCL17 cytokines and 1/100 for IL12p40 cytokines. A. IL10 cytokine secretion by M2 cells. B. CCL17 cytokine secretion by M2 cells. C. represents IL 12 cytokine secretion by M1 cells.
Bone marrow cells were harvested and cultured in the RPMI medium supplemented with 10% FBS, glutamine and antibiotics containing macrophages colony-stimulating factor (M-CSF) at 100 ng/ml for 5 days inducing the macrophages differentiation. The macrophages were harvested and cultured for 2 days with either IFNg (20 ng/ml) and LPS (100 ng/ml) inducing the M1 polarization or with IL-4 (20 ng/ml) inducing the M2 polarization. Treatments were added during macrophage polarization at 2 μg/ml.
After differentiation of mice M1 or M2 as explain above, cells were incubated in presence of medium, isotype control, anti-CMKLR1 antibodies: clones H6 and BZ194, C15 peptides, 2G1 the anti-CMKLR1 antibody of interest or RvE1 were used. Then the secretion of IL10, CCL17 and IL12p40 was assessed by ELISA. Cytokines secretion was measured in the supernatant using an ELISA kit from BD. Supernatants were diluted at 1/10 for IL10 cytokines, 1/50 for CCL17 cytokines and 1/100 for IL12p40 cytokines.
Cytokines secretion was detected by ELISA according to the BD manufacturer instructions. Briefly, supernatants were diluted in the appropriate buffer and incubated for 2 hours after overnight coating with capture antibody and saturation. […] TMB supplied by BD Bioscience was used as substrate and colorimetric reaction was read with TECAN.

[3] = tested on: IL-10KO mice, spontaneous colitis; assay: IL10-KO spontaneous chronic colitis model; assay type: in vivo; conditions: 25 μg/injection i.p., 3 times a week, vs isotype control
Procedure: FIG. 4. […] Mice KO for IL10 develop a spontaneous inflammatory colitis. They were treated with an Anti-CMKLR1 antibody (2G1) ( ) or isotype control (hIgG1) (x) intra-peritoneally (25 μg/injection, 3 times a week). A. Animal weight loss during and after treatment. B. Animal score stool.
IL-10KO mice develop a spontaneous colitis from 20 weeks of age mostly due to the absence of regulatory T cells function through IL-10 secretion in the intestine. IL-10KO mice were followed-up three times a week from 18-week old for their weight loss and stool consistency which are clinical hallmarks of this pathology.

B1: 2G1: chimeric anti-CMKLR1 antibody, murine variable regions (SEQ ID No: 10 and 17), human IgG1 constant regions; VH-CDR3 variant LI (antibody, V domains shown)
VH: METDTLLLWVLLLWVPGSTGDEVQLVASGGGLVQPGGSLKLSCAASGFTFSSYGMSWVRQTPDRRLELVATINRYGGSTYYPDSVKGRFTISRDNAKNTLYLQMSSLKSEDTAMYYCPRLIYYGNEGDSWGQGTTLTVSS
VL: METDTLLLWVLLLWVPGSTGDQIVLTQSPAIMSASPGEKVTMTCSASSSVSFMHWYQQKSGTSPKRWIYDTTKLTSGVPARFSGSGSGTFYSLTISSMEAEDAATYYCQQWNSKPPLTFGPGTKLELKR
modifications: human IgG1 constant regions
notes: VH-CDR3 variant LI
- survival percentage ([1]; FIG. 5A): better survival percentage
- glycaemia (blood glucose concentration) ([1]; FIG. 5B-C): almost normal glycaemia
- IL10 secretion by M2 type macrophages ([2]; FIG. 15A): induced
- CCL17 secretion by M2 type macrophages ([2]; FIG. 15B): induced
- pro-inflammatory cytokines (IL12) from M1 type macrophages ([2]; FIG. 15C): decreased
- percentage of weight loss ([3]; FIG. 4A): lost less weight
- score stool ([3]; FIG. 4B): better score stool
